Assay results taken from PMC10031466, “The ROK kinase N-acetylglucosamine kinase uses a sequential random enzyme mechanism with successive conformational changes upon each substrate binding” (The Journal of Biological Chemistry, 2023).

B1: N-acetylglucosamine kinase (NagK) (Vibrio vulnificus CMCP6) (protein)
chain: MYYGFDVGGTKIEFGAFNEKLERVATERVPTPTDDYPLLLETIAGLVAKYDQEFACEGKIGLGLPGMEDADDATVLTVNVPAAKGKPLRADLEAKIGRSVKIENDANCFALSEAWDEELQDAPSVMGLILGTGFGGGLIYEGKVFSGRNNVAGELGHMRLPLDAWFHLGDNAPLLGCGCGKKGCLDSYLSGRGFELLYAHYYGEEKKAIDIIKANAAGDEKAAEHVERFMELLAICFGNIFTANDPHVVALGGGLSNFELIYEEMPKRVPKYLLSVAKCPKIIKAKHGDSGGVRGAAFLNIKG
B2: N-acetylglucosamine kinase (PsNagK) (Plesiomonas shigelloides 302-73) (protein)
chain: MYYGFDIGGTKIEFGAFDADLVRVARERVATPTESYAAFLDAIVTLVNNADAEFGVKGTVGIGIPGIADVETGKLLTSNIPAAMGHTLQRDLEERLQRPVKIENDANCFALSEAWDEDLRGEPSVLGLILGTGVGGGLIFNGKVHSGRANIAGEIGHTRLPYDALKLLGMENAPIFPCGCKNSGCIDNYLSGRGFEQLYDHYFSEKLSAPEIIAHYEQGERRAVQHVERFMELLAICLANIFTCLDPHVVVLGGGLSNFELIYQELPKRLPAHLLHVAKLPKIIKARHGDAGGVRGAAFLNLA
notes: His-tagged protein

Columns and labels:
Assay in all cases: PK/LD coupled enzyme kinetics (KM app)
Settings in all cases: Mg2+
[1] = substrate: Nc1ncnc2c1ncn2[C@@H]1O[C@H](COP(=O)(O)OP(=O)(O)OP(=O)(O)O)[C@@H](O)[C@H]1O; type: biochemical, Vibrio vulnificus
[2] = substrate: CC(=O)N[C@@H]1[C@@H](O)[C@H](O)[C@@H](CO)O[C@@H]1O; type: biochemical, Vibrio vulnificus
[3] = substrate: Nc1ncnc2c1ncn2[C@@H]1O[C@H](COP(=O)(O)OP(=O)(O)OP(=O)(O)O)[C@@H](O)[C@H]1O; type: biochemical, Plesiomonas shigelloides

Row | Protein | Km [1] [µM] | Km [2] [µM] | Km [3] [µM]
1 | B1 | 41 ± 9 | 210 ± 60 | 
2 | B2 |  |  | 290 ± 20
